Experimental data from patent publication US20120263644A1.

Molecular target: leukocyte function antigen-1 (LFA-1), composed of CD11a and CD18, on human white blood cells (human) (UniProt P20701)
Test: cell-based or functional assay

Chain of leukocyte function antigen-1 (LFA-1), composed of CD11a and CD18, on human white blood cells (human) (P20701 26-1170, chain 1 of 2): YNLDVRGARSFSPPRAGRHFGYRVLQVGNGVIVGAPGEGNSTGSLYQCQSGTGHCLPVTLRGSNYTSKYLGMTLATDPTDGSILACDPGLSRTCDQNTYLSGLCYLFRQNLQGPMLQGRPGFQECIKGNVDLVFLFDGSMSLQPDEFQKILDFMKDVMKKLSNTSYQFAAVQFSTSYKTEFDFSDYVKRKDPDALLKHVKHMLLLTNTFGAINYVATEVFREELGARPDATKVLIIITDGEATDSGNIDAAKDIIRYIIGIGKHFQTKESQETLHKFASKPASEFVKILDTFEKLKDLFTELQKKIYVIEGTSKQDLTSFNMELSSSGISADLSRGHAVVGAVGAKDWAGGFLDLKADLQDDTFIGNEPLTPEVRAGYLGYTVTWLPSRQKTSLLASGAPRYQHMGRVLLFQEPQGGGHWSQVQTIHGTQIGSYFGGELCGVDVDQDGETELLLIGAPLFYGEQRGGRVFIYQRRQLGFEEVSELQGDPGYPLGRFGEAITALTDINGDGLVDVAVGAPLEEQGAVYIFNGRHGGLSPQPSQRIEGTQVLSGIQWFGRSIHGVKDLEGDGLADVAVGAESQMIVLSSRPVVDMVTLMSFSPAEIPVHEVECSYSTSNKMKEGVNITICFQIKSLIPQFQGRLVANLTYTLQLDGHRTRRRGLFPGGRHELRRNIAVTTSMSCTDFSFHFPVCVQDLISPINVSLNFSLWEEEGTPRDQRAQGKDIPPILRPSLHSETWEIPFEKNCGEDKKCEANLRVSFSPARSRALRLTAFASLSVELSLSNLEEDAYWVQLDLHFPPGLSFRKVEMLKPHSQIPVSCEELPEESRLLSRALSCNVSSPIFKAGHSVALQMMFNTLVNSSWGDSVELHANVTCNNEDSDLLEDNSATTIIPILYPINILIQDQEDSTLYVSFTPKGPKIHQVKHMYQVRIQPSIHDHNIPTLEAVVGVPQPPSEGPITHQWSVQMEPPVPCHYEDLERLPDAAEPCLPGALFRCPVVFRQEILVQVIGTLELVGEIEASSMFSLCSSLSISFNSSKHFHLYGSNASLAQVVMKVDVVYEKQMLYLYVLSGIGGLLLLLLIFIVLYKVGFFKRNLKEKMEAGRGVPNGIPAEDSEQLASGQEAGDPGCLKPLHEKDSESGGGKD
Chain of leukocyte function antigen-1 (LFA-1), composed of CD11a and CD18, on human white blood cells (human) (P05107 23-769, chain 2 of 2, further chain): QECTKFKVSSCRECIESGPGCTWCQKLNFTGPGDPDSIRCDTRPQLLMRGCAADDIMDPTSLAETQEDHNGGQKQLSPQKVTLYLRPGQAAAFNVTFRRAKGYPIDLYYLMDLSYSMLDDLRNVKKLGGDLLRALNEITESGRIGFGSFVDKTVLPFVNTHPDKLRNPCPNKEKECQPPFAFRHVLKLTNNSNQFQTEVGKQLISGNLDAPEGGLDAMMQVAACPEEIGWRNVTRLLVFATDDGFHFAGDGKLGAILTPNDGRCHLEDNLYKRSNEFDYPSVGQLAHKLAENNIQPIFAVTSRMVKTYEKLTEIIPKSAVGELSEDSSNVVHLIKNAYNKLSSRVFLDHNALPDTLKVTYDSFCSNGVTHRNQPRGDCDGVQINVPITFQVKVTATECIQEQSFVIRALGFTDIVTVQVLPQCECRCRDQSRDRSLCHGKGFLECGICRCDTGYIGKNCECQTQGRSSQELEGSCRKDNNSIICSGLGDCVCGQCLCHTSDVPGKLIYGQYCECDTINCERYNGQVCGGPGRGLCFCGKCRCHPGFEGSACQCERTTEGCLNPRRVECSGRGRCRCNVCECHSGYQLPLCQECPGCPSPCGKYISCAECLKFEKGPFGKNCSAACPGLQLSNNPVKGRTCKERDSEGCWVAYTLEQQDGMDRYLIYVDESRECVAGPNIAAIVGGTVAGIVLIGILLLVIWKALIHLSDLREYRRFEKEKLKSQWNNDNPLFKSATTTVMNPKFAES

IC50 of inhibition of proliferation of Jurkat cells (CellTiter Glo): 5000 µg/mL
Substance: Efalizumab (RAPTIVA), anti-LFA-1 mAb (antibody)
